# Results from the RNAGym collection of RNA variant scans (doi:10.1073/pnas.2313332121).
# B1: TPR t1 (parent)
# chain: GACCAAUCUGCCCUCAGAGCUCGAGAACAUCUUCGGAUGCAGAGGAGGCAGGCUUCGGUGGCGCGAUAGCGCCAACGUCCUCAACCUCCAAUGCAUCCCACCACAUGAUGAUGCCUGAAGAGCCUUGGUUUUUUG
# Variants of: B1
# Experiment: polymerase ribozyme fitness, log enrichment relative to wild type (log ratio); higher = more active; in vitro selection for triplet polymerase activity
# In short: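 To select mutant libraries of each subunit of a heterodimeric triplet polymerase ribozyme, built by PCR and transcribed, each was annealed with a biotinylated primer, partner subunit and triplets, then incubated frozen at −7 °C. Extended constructs were gel-excised, captured on streptavidin beads and amplified by RT-PCR, in one round carried out in triplicate. Illumina sequencing of input and output libraries kept genotypes with ≥10 input reads and ≥1 read per output. Fitness is the base-2 logarithm of genotype enrichment relative to wild-type enrichment, from inverse-variance-weighted replicate averages.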
row,Variant,polymerase ribozyme fitness (log ratio)
1,GACCAAUCUCCACUCAGAGCUCGAGAACAUCUUCGGAUGCAGAGGAGGCAGGCUUCGGUGGCGCGAUAGCGCCAACGUCCUCCACCUCCAAUGCAUCCCACCACAUGAUGAUGCCUGAAGAGCGUUGGUUUUUUG,1.04
2,GACCAAUCUCACCUCAGAGCUCGAGAACAUCUUCGGAUGCAGAGGAGGCAGGCGUCGGUGGCGCGAUUGCGCCAACGUCCUCAACCUCCAAUGCAUCCCACCACAUGAAGAUGCCUGAAGAGCCUUGUUUUUUUG,-7.09
3,GACCAAUCUCCCCUCAGAGCUCGAGAACAUCUUCGGAUGCAGAGGAGGCAGGCUUCGGUGGCGCGAUGGCGCCAACGUCCUCAACCUCCAAUGCAUCCCACCACAUGAUGAUGCCUGAAGAGCCUUGGUUUUUUG,-4.75
4,GACCAAUCUCCCCUCAGAGCUCGAGGACAUCUUCGGAUGCAGAGGAGGCAGGCUUCGGUGGGGCGAUAGCGCCAACGUCCUCAACCUCCAAUGCAUCCCACCACAUGAUGAUGCCUGAAGAGCCUUGGUUUUUUG,-4.17
5,GACCAAUCUCCCCUCAGAGCUCGAGAACAUCUUCGGAUGCUGAGGAGGCGGGCUUCGGUGGCGCGAUAGCGCCAACGUCCUCAACCUCCAAUGCAUCCCACCACAUGAUGAUGCCUGAAGAGCCUUGGUUUUUUG,-1.93
6,GACCAAUCUACCCUCAGAGCUCGAGAACAUCUUCGGAUGCAGAGGAGGCAGGCUUCGGUGGCGCGAUAGCGCCAACGUCCUCAACCUCCAAUGCAUCCCACCACACGAUGAUGCCUGAAGAGCCUUGGUUUUUUG,-0.101
7,GACCAAUCUACCCUCAGAGCUCGAGAACAUCUUCGGAUGCAGAGGAGGCAGGCUUCGGUGGCGCGAUAGCGCCAACGUCCUCAACCUCCAAUGCAUCCCACCACAAGAUGAUGCCUGAAGAGCCUUGGUUUUUUG,0.457
8,GACCAAUCUCCCCUCAGAGAUCGAGAACCUCUUCGGAUGCAGAGGAGGCAGGCUUCGUUAGCGCGAUAGCGCCAACGUCCUCAAUCUCCAAUGCAUCCCACCACAUGAUGAUGCCUGAAGAGCCUUGGUUUUUUG,-6.83
9,GACCAAUCUCCCCUCAGAGCUCGAGAACAUCUUCGGAUGCAGAGGAGGCAGGCUUCGGUGGCGCGGUAGCGCCAACGUCCUCUACCUCCAAUGCAUCCCACCACAUGAUGAUGCCUGAAGAGCCUUGGUUUUUUG,-1.48
10,GACCAAUCUCCCCUCUGAGCUCGAGAACAUCUUCGGAUGCAGAGGAGGCAGGCUUCGGUGGCGCGAUAGCGCCAACGUCCUCAACCUCCAAUGCAUCCCACCACAUGAUGAUGCCUGAAGAGCCUUGGUUUUUUG,-1.98
11,GACCAAUCUCCCCUCAGAGCUCGAGAACAUCUUCGGAUGCCGAGGAGGCAGGCUUCGGUGGCGCGAUAGUGCCAACGUCCUCAACCUCCAAUGCAUCCCACCACAUGAUGAUGCCUGAAGAGCCUUGGUUUUUUG,-3.72
12,GACCAAUCUCCCCUCAGAGAUCGAGAACAUCUUCGGAUGCAGAGGAGGCAGGCAUCGGUGGCGUGAUAGCGCCAACGUCCUCAACCUGCAAUGCAUCCCACCACAUGAUGAUGCCUGUAGAGCCUUGGUUUUUUG,-2.75
13,GACCAAUCUCUCCUCAGAGCUCGAGAACAUCUUCGGAUGCAGAGGAGGCAGGCUUCGGUGGCGCGAUAGCGCCAACGUCCUCAUCCUCCAAUGCAUCCCACCACAUGGUGAUGCCUGAAGAGCCUUGGUUUUUUG,-2.5
14,GACCAAUCUCCCCUCAGAGCUCGAGAACAUCUUCGGAUGCAGAGGAGGCAGGCUUCGGUGGCGCGUUAGCGCCAACGUCCUCAACCUCCAAUGCAUUCCACCACAUGAUGAUGCCUGAAUAGUCUUGGUUUUUUG,0.489
15,GACCAAUCUCCCCUCAGAGCUCGUGAACAUCUUCGGAUGCAGAGGAGGCAGGAUUCGGUGGCCCGAUAGCGCCAACGUCCUCAACCUCCAAUGCAUCCCACCACAUGAUGAUGCCUCAAGAGCCUUGAUUUUUUG,-5.7
16,GACCAAUCUCCCCUCAGAGCUCGAGAACAUCUUAGGAUGCAGAGGAGGCAGGCUUCGGUGGCGCGAUAGCGCCAACGUCCUCAACCUCCAAUGCAUCCCACCACAUGAUGAUGCCUGAAGAGCAUUGGUUUUUUG,-3.03
17,GACCAAUCUCGCCUCAGAGCACGAGAACAUCUUCGGAUGCAGAGGAGGCAGGCUUCGGUGGCGCGAUAGCGCCAACGUCCUCAACCUCCAAUGCAUCCCACCACAUGAUGAUGCCUGAAGAGCCUUGGUUUUUUG,0.0374
18,GACCAAUCUCCCCUCAGAGCUCGGGAACAUCUUCGGAUGCAGAGGCGGCAGGCUUCGGUGGCGCGAUAGCGCCAACGUCCUCAACGUCCAAUGCAUCCCACCACAUGAUGAUGCCUGAAGAGCCUUGGUUUUUUG,-3.81
19,GACCAAUCUACCCUCAGAGCUCGAGAACAUCUUCGGAUGCAGAGGAGGCAGGCUUCGGUGGCGCGAUAGCGCCAACGUCCUCAACCUCCAAUGCAUCCCACCACAUGAUGAUGCCCGAAGAGCCUUGGUUUUUUG,-0.237
20,GACCAAUCUCCCUUCAGAGCUCGAGAACAUCUUCGGAUGCAGAGGAGGCAGGCUUCGGUGGCGCGAUAGCGCCAACGGUCUCAACCUCUAAUGCAUCCCACCACAUGAUGAUGCCUGAAGAGCCUUGGUUUUUUG,-0.171
21,GACCAAUCUCCACUCAGAGCUCGAGAACAUCUUCGGAUGCAGAGGAGGCAGGCCUCGGUGGCGCGAUAGCGCCAACGUCCUCAACCUCCAAUGCAUCCCACCACAUGAUGAUGCCUGAAGAACCUUGGUUUUUUG,0.0391
